In patent publication US20130295071A1 (SHIRE HUMAN GENETIC THERAPIES, published 2013):

Biological target: the molecule itself
Assay: sedimentation velocity AUC, 150 mM NaCl, pH 6.0; self-association

B1: mouse galactocerebrosidase (mGalC), recombinant (enzyme)
chain: YVLDDSDGLGREFDGIGAVSGGGATSRLLVNYPEPYRSEILDYLFKPNFGASLHILKVEIGGDGQTTDGTEPSHMHYELDENYFRGYEWWLMKEAKKRNPDIILMGLPWSFPGWLGKGFSWPYVNLQLTAYYVVRWILGAKHYHDLDIDYIGIWNERPFDANYIKELRKMLDYQGLQRVRIIASDNLWEPISSSLLLDQELWKVVDVIGAHYPGTYTVWNAKMSGKKLWSSEDFSTINSNVGAGCWSRILNQNYINGNMTSTIAWNLVASYYEELPYGRSGLMTAQEPWSGHYVVASPIWVSAHTTQFTQPGWYYLKTVGHLEKGGSYVALTDGLGNLTIIIETMSHQHSMCIRPYLPYYNVSHQLATFTLKGSLREIQELQVWYTKLGTPQQRLHFKQLDTLWLLDGSGSFTLELEEDEIFTLTTLTTGRKGSYPPPPSSKPFPTNYKDDFNVEYPLFSEAPNFADQTGVFEYYMNNEDREHRFTLRQVLNQRPITWAADASSTISVIGDHHWTNMTVQCDVYIETPRSGGVFIAGRVNKGGILIRSATGVFFWIFANGSYRVTADLGGWITYASGHADVTAKRWYTLTLGIKGYFAFGMLNGTILWKNVRVKYPGHGWAAIGTHTFEFAQFDNFRVEAAR
notes: also called rmGALC; rmGalC
  binding result: binds
